Measured values published in patent publication US20230093399A1, “METHODS FOR GENERATING PLURIPOTENT STEM CELL-DERIVED BROWN FAT CELLS” (AgeX Therapeutics, Inc., priority 2013, published 2023).

Tests used:
cell line E3 = test: Differentiation of clonal hEP cell line E3 in HyStem beads, Illumina microarray gene expression; format: cell-based, human; settings: E3
Description: (§1) Differentiation medium is high glucose DMEM (CellGro Cat. No. 15-013-CV) with Pyruvate, 1 mM (Gibco Cat. 11360), Pen:Strep 100U/ml:100 ug/ml (Gibco Cat. No. 504284), Glutamax 2 mM (Gibco Cat. No. 35050), Dexamethasone 0.1 uM (Sigma, St. Louis, Mo., Cat. No. D1756-100), L-Proline 0.35 mM (Sigma Cat. No. D49752), 2-phospho-L-Ascorbic Acid 0.17 mM (Sigma, Cat. No. 49792, Fluka), and ITS Premix (BD, Franklin Lakes, N.J., sterile Cat. No. 47743-628) with a final concentration 6.25 ug/ml insulin, 6.25 ug/ml transferrin, 6.25 ng/ml selenious acid, serum albumin 1.25 mg/ml, 5.35 ug/ml linoleic acid. In various differentiation conditions, the Differentiation medium is supplemented with various growth factors or other differentiation factors as described herein.
The Gelin-S® component (10 mg of thiol-modified gelatin (BioTime)) is dissolved in 1.0 ml of degassed deionized water to prepare a 1% w/v solution, and polyethylene glycol diacrylate (10 mg of PEGDA) is dissolved in 0.5 ml of degassed deionized water to prepare a 2% w/v solution. Then, HyStem (1 ml, 1% w/v) is mixed with Gelin-S (1 ml, 1% w/v) immediately before use. Pelleted cells are resuspended in the recently prepared HyStem:Gelin-S (1:1 v/v) mix described above. Upon the addition of the PEGDA cross-linker, the cell suspension, at a final concentration of 2.0×10^7 cells/ml is aliquoted (25 μl/aliquot) into six-well plates (Corning® 3516; VWR, PA, USA) after partial gelation. Following complete gelation (20 min), Differentiation Medium is added to each well. Plates were then placed in a humidified incubator at 37° C. with ambient O2 and 10% CO2, and the cells were fed three-times weekly. At the desired time point, hydrogel constructs were either fixed and processed for immunohistochemical analysis or lysed using RLT (Qiagen, CA, USA) with 1% beta-mercaptoethanol for total RNA to analyze transcript expression using quantitative real-time PCR (qRT-PCR) and/or whole-genome microarray.
Total RNA was extracted directly from cells growing in 6-well plates or 10 cm tissue culture dishes using Qiagen RNeasy mini kits according to the manufacturer's instructions. RNA concentrations were measured using a Beckman DU530 or Nanodrop spectrophotometer and RNA quality was determined by denaturing agarose gel electrophoresis or using an Agilent 2100 bioanalyzer. Whole-genome expression analysis was carried out using Illumina Human Ref-8v3 or Human HT-12 v4 BeadArrays, and RNA levels for certain genes were confirmed by qRT-PCR. For the Illumina BeadArrays, total RNA was linearly amplified and biotin-labeled using Illumina TotalPrep kits (Life Technologies, Temecula, Calif., USA), and cRNA was quality-controlled using an Agilent 2100 Bioanalyzer. The cRNA was hybridized to Illumina BeadChips, processed, and read using a BeadStation array reader according to the manufacturer's instructions (Illumina, San Diego, Calif., USA). Values of less than 120 relative fluorescence units (RFUs) were considered as nonspecific background signal.

fBAT cells = test: Differentiation of fBAT preadipocyte cells in HyStem beads, Illumina microarray gene expression; format: cell-based, human; settings: 14 days HyStem beads, 50 ng/ml BMP4, FIG. 15 sample 2
Description: as §1
HyStem-C (BioTime, Inc. Alameda, Calif.) is a matrix composed of thiol-modified gelatin and thiolated hyaluronan crosslinked in vivo or in vitro with (polyethylene glycol diacrylate (PEGDA). We observed that clonal human embryonic progenitor cell lines such as those described in the present invention, could be efficiently differentiated in high-density cultures of said crosslinked collagen and hyaluronate in the following manner. HyStem-C® (BioTime, CA, USA) is reconstituted following the manufacturer's instructions. Briefly, the HyStem component (10 mg of thiol-modified hyaluronan) is dissolved in 1.0 ml of degassed deionized water for approximately 20 min to prepare a 1% w/v solution. […] At the desired time point, hydrogel constructs were either fixed and processed for immunohistochemical analysis or lysed using RLT (Qiagen, CA, USA) with 1% beta-mercaptoethanol for total RNA to analyze transcript expression using quantitative real-time PCR (qRT-PCR) and/or whole-genome microarray.
Total RNA was extracted directly from cells growing in 6-well plates or 10 cm tissue culture dishes using Qiagen RNeasy mini kits according to the manufacturer's instructions. […] Values of less than 120 relative fluorescence units (RFUs) were considered as nonspecific background signal. […]

B1: BMP4: Bone Morphogenetic Protein 4, TGF-beta superfamily member (protein, UniProt P12644 293-408, looked up)
Bone morphogenetic protein 4: SPKHHSQRARKKNKNCRRHSLYVDFSDVGWNDWIVAPPGYQAFYCHGDCPFPLADHLNSTNHAIVQTLVNSVNSSIPKACCVPTELSAISMLYLDEYDKVVLKNYQEMVVEGCGCR
Q: For B1, which “expression of C19ORF80 transcript” value (cell line E3; HyStem beads supplemented with 10 ng/ml BMP4, FIG. 2) is on record?
A: highest expression

Q: What about the PCK1 transcript expression (cell line E3; HyStem beads with 10 ng/ml BMP4 or 100 ng/ml BMP7, FIG. 5) of the same molecule?
A: relatively high levels

Q: What about the ADIPOQ expression (fBAT cells) of the same molecule?
A: markedly up-regulating

Q: And the C19ORF80 expression (fBAT cells)?
A: markedly up-regulating

Q: And the UCP1 expression (fBAT cells)?
A: low or undetectable level
